Laboratory results from PMC11842806, “Molecular basis of foreign DNA recognition by BREX anti-phage immunity system” (Nature Communications, 2025).

Experiments:
BrxX:Ocr (BrxX2:Ocr2) = target: T1, BrxX:Ocr (BrxX2:Ocr2) (Escherichia coli, UniProt P0DUF9); experiment: cryoEM structure ([…] A); assay type: binding; conditions: Ocr bound, no DNA, Mg2+, CHAPSO, pH 7.5; site: methyltransferase domain pocket; SAM modelled from the DNA-bound structure
T1 construct: gene pglX; full-length BrxX with N-terminal His6 kept plus T7 Ocr with N-His-TEV kept; both expressed in E. coli BW25113; BrxX2:Ocr2 complex; with Protein Ocr (Escherichia phage T7)
T1 sequence (P0DUF9 1-1205): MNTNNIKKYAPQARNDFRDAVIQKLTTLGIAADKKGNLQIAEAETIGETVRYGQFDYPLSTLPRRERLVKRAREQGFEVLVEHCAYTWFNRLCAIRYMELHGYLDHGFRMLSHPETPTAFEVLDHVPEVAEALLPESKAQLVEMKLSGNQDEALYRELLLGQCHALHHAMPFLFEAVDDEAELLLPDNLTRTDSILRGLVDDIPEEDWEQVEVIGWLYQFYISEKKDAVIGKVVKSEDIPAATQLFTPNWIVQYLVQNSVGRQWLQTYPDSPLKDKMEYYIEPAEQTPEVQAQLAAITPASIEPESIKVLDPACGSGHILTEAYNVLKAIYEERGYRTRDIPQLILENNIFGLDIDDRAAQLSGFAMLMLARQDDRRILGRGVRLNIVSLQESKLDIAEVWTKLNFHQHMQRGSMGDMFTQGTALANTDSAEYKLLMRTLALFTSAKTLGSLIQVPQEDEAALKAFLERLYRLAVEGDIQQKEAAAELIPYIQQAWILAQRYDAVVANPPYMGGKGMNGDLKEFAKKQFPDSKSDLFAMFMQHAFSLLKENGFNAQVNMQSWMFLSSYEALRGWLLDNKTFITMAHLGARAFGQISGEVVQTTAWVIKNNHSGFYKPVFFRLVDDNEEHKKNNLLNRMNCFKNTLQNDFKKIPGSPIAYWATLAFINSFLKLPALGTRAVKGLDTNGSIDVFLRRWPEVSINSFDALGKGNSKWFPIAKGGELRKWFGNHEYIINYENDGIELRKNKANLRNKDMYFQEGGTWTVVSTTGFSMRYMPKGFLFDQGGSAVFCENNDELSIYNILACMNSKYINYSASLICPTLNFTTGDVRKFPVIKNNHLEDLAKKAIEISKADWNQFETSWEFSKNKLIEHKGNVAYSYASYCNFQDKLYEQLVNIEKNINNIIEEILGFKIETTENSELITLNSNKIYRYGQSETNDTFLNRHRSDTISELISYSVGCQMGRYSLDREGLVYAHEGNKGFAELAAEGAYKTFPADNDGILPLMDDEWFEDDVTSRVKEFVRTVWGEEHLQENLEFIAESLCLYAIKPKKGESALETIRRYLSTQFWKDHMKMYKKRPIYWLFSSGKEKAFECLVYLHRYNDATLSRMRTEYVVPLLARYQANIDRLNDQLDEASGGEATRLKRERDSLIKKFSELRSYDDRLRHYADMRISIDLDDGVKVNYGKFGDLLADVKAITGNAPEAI
T1 sequence (P03775 1-117 partner): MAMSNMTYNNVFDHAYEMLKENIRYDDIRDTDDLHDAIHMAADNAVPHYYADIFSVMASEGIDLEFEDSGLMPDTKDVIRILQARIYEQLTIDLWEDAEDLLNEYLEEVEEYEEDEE

BrxX (PglX) [1] = target: T2, BrxX (PglX) (Escherichia coli HS, UniProt P0DUF9 1-1205); experiment: EMSA; improved binding; with and without 0.5 mM SAM; EMSA: 20 nM Cy5-DNA, 0.5x TBE pH 8.0, 35 mM NaCl, 5% glycerol, +/-0.5 mM SAM or SAH, 30 min, room temperature; BLI: 20 mM Tris-HCl pH 8.0, 100 mM NaCl, 0.05 mg/mL BSA, 0.02% Tween-20, +/-0.5 mM SAM, 30 C; conditions: protein: recombinant; tags: N-His6; label: 5'-Cy5 on strand 1; blunt
T2 sequence: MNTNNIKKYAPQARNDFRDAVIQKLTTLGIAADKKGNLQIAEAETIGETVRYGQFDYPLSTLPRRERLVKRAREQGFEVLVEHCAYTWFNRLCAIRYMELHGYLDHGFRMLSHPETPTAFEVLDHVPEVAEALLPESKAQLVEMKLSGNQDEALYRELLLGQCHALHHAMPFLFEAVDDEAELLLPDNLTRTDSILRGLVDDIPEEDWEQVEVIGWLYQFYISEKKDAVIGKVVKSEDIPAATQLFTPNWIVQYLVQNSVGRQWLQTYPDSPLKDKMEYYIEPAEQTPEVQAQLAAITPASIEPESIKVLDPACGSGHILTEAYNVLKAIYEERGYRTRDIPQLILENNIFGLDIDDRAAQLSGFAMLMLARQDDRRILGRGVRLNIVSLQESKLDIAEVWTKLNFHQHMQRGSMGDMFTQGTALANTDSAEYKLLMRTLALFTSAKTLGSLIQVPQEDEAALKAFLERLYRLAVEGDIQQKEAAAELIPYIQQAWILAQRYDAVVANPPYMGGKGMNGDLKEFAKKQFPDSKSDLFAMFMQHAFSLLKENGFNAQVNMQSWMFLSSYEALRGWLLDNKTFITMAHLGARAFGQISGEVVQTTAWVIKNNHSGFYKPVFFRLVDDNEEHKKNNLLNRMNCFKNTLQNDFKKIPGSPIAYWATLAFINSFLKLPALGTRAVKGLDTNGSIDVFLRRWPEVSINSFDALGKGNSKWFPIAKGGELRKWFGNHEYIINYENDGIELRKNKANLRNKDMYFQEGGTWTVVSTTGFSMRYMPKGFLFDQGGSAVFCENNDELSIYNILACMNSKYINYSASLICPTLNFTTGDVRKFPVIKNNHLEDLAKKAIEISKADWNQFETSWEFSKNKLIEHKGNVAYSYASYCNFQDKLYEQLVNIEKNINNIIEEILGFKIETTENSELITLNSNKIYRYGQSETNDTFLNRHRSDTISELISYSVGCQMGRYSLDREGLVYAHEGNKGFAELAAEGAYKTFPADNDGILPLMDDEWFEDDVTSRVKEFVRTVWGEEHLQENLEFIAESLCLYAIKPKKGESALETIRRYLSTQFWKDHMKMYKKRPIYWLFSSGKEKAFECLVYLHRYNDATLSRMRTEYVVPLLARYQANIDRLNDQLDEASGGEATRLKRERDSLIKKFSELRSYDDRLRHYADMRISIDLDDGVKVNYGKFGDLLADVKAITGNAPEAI

BrxX (PglX) [2] = target: T2, BrxX (PglX); experiment: BLI; 1:1 fit, stimulated by SAM; Kd only in figure; EMSA: 20 nM Cy5-DNA, 0.5x TBE pH 8.0, 35 mM NaCl, 5% glycerol, +/-0.5 mM SAM or SAH, 30 min, room temperature; BLI: 20 mM Tris-HCl pH 8.0, 100 mM NaCl, 0.05 mg/mL BSA, 0.02% Tween-20, +/-0.5 mM SAM, 30 C; conditions: protein: recombinant; tags: N-His6; label: 5'-biotin on strand 1; blunt
BrxX (PglX) [3] = target: T2, BrxX (PglX); experiment: BLI; SAM; heterogeneous binding, no accurate Kd; EMSA: 20 nM Cy5-DNA, 0.5x TBE pH 8.0, 35 mM NaCl, 5% glycerol, +/-0.5 mM SAM or SAH, 30 min, room temperature; BLI: 20 mM Tris-HCl pH 8.0, 100 mM NaCl, 0.05 mg/mL BSA, 0.02% Tween-20, +/-0.5 mM SAM, 30 C; conditions: protein: recombinant; tags: N-His6; label: 5'-biotin on strand 1; blunt
BrxX (PglX) [4] = target: T2, BrxX (PglX); experiment: EMSA; non-methylated partner of N9; no cofactor, SAM or SAH; EMSA: 20 nM Cy5-DNA, 0.5x TBE pH 8.0, 35 mM NaCl, 5% glycerol, +/-0.5 mM SAM or SAH, 30 min, room temperature; BLI: 20 mM Tris-HCl pH 8.0, 100 mM NaCl, 0.05 mg/mL BSA, 0.02% Tween-20, +/-0.5 mM SAM, 30 C; conditions: protein: recombinant; tags: N-His6; label: 5'-Cy5 on strand 1; blunt
BrxA = target: T3, BrxA (Escherichia coli HS, UniProt P0DUF6 1-213); experiment: EMSA; EMSA: 20 nM Cy5-DNA, 0.5x TBE pH 8.0, 35 mM NaCl, 5% glycerol, +/-0.5 mM SAM or SAH, 30 min, room temperature; BLI: 20 mM Tris-HCl pH 8.0, 100 mM NaCl, 0.05 mg/mL BSA, 0.02% Tween-20, +/-0.5 mM SAM, 30 C; conditions: protein: recombinant; tags: N-His6; label: 5'-Cy5 on strand 1; blunt
T3 sequence: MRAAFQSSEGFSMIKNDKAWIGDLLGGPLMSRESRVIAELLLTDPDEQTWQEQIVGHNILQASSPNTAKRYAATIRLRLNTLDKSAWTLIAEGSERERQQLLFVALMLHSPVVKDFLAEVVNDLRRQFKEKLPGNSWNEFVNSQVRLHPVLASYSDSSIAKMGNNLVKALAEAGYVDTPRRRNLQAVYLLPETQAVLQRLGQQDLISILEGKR

BrxX (PglX) [5] = target: T2, BrxX (PglX); experiment: EMSA; 0.5 mM SAM; EMSA: 20 nM Cy5-DNA, 0.5x TBE pH 8.0, 35 mM NaCl, 5% glycerol, +/-0.5 mM SAM or SAH, 30 min, room temperature; BLI: 20 mM Tris-HCl pH 8.0, 100 mM NaCl, 0.05 mg/mL BSA, 0.02% Tween-20, +/-0.5 mM SAM, 30 C; conditions: protein: recombinant; tags: N-His6; label: 5'-Cy5 on strand 1; blunt
BrxX (PglX) [6] = target: T2, BrxX (PglX); experiment: EMSA; no cofactor; EMSA: 20 nM Cy5-DNA, 0.5x TBE pH 8.0, 35 mM NaCl, 5% glycerol, +/-0.5 mM SAM or SAH, 30 min, room temperature; BLI: 20 mM Tris-HCl pH 8.0, 100 mM NaCl, 0.05 mg/mL BSA, 0.02% Tween-20, +/-0.5 mM SAM, 30 C; conditions: protein: recombinant; tags: N-His6; label: 5'-Cy5 on strand 1; blunt
BrxX (PglX) [7] = target: T2, BrxX (PglX); experiment: cryoEM structure (2.2 A); SAM, metal modelled as Mg2+; EMSA: 20 nM Cy5-DNA, 0.5x TBE pH 8.0, 35 mM NaCl, 5% glycerol, +/-0.5 mM SAM or SAH, 30 min, room temperature; BLI: 20 mM Tris-HCl pH 8.0, 100 mM NaCl, 0.05 mg/mL BSA, 0.02% Tween-20, +/-0.5 mM SAM, 30 C; conditions: protein: recombinant; tags: N-His6; blunt

C[S+](CC[C@H](N)C(=O)O)C[C@H]1O[C@@H](n2cnc3c(N)ncnc32)[C@H](O)[C@@H]1O (some centres unmarked) [S-adenosyl methionine]
cryoEM structure (2.8 A) (BrxX:Ocr (BrxX2:Ocr2)): The MTD displayed density for a molecule of SAM

B1: 50 bp BREX (dsDNA)
DNA 1: AGTCATCAGTAGTCAAGTCAGTGGTAAGGTCAGGACAGGAGTCAGCAGGA
DNA 2: TCCTGCTGACTCCTGTCCTGACCTTACCACTGACTTGACTACTGATGACT
binding result (BrxX (PglX) [1]): binds

B2: 20 bp BREX, biotin (dsDNA)
DNA 1: AGTCAGTGGTAAGGTCAGGA
DNA 2: TCCTGACCTTACCACTGACT
binding result (BrxX (PglX) [2]): binds

B3: 40 bp BREX, biotin (dsDNA)
DNA 1: TCAGTAGTCAAGTCAGTGGTAAGGTCAGGACAGGAGTCAG
DNA 2: CTGACTCCTGTCCTGACCTTACCACTGACTTGACTACTGA
binding result (BrxX (PglX) [3]): binds

B4: 40 bp BREX (dsDNA)
DNA 1: TCAGTAGTCAAGTCAGTGGTAAGGTCAGGACAGGAGTCAG
DNA 2: CTGACTCCTGTCCTGACCTTACCACTGACTTGACTACTGA
binding result (BrxX (PglX) [4]): binds

B5: 43 bp scrambled (dsDNA)
DNA 1: AGTCAGTAGTGAGGTCAGGAATGAGTCAGTCTCACTGTCAGGA
DNA 2: TCCTGACAGTGAGACTGACTCATTCCTGACCTCACTACTGACT
binding result (BrxA): binds | Kd (BrxX (PglX) [5]): ~300 nM

B6: 43 bp, 1 BREX site (dsDNA)
DNA 1: AGTCAGTGGTAAGGTCAGGAATGAGTCAGTTGGCAAGTCAGGA
DNA 2: TCCTGACTTGCCAACTGACTCATTCCTGACCTTACCACTGACT
binding result (BrxA): binds | Kd (BrxX (PglX) [5]): ~60 nM | Kd (BrxX (PglX) [6]): ~300 nM

B7: 43 bp, 2 BREX sites head-to-tail (H2T) (dsDNA)
DNA 1: AGTCAGTGGTAAGGTCAGGAATGAGTCAGTGGTAAGGTCAGGA
DNA 2: TCCTGACCTTACCACTGACTCATTCCTGACCTTACCACTGACT
binding result (BrxX (PglX) [7]): binds
